According to the RNAGym collection of RNA variant scans (doi:10.7554/elife.80360):

B1: Twister Ribozyme (parent)
chain: AACACUGCCAAUGCCGGUCCCAAGCCCGGAUAAAAGUGGAGGGGGCGG

Variants of: B1
Assay: self-cleavage, relative activity (ratio to wild type); higher = more cleavage; co-transcriptional
C26G G42U showed a self-cleavage of 0.13. Variant C26A U31G has a self-cleavage of 0.691. Work on G24U G38C yielded a self-cleavage of 0.103. With G24U A30C the self-cleavage was 0.0633. C26G G28A showed a self-cleavage of 0.101. Work on C25U A32G yielded a self-cleavage of 0.804. For C25U A32C, the self-cleavage was 0.903. In the case of C27G G39C, the self-cleavage is reported as 0.105. Work on C25A A32G yielded a self-cleavage of 0.0602. C25A A32U showed a self-cleavage of 0.078. With G24U G29A the self-cleavage was 0.127. With C25A G39U the self-cleavage was 0.115. Variant C25A G39A has a self-cleavage of 0.0801. C25A G39C gave a self-cleavage of 0.0833. G24U U31A showed a self-cleavage of 0.113. Work on G24U G39U yielded a self-cleavage of 0.0828. Variant C26U G45A has a self-cleavage of 0.232. Work on C26U G45C yielded a self-cleavage of 0.0973. In the case of C27A A30G, the self-cleavage is reported as 0.529. Work on C25A C46G yielded a self-cleavage of 0.0534. In the case of C25A C46A, the self-cleavage is reported as 0.07. Variant C25A C46U has a self-cleavage of 0.104. Variant C26A G44U has a self-cleavage of 0.456. Work on C26A G44A yielded a self-cleavage of 0.562. C25U G43A gave a self-cleavage of 0.151. For C25U G43C, the self-cleavage was 0.102. G24U A40G gave a self-cleavage of 0.0745. Variant C25A G28A has a self-cleavage of 0.166. In the case of C26G G36C, the self-cleavage is reported as 0.0652. Variant G24C G44A has a self-cleavage of 0.0864. Variant G24C G44C has a self-cleavage of 0.0955. For C26U C46A, the self-cleavage was 0.207. C26U C46G showed a self-cleavage of 0.307. C26U C46U gave a self-cleavage of 0.519. Work on C25U C27G yielded a self-cleavage of 0.101. With C25U C27U the self-cleavage was 0.74. C25U C27A showed a self-cleavage of 0.509. With C27A A40C the self-cleavage was 0.155. C26A A40C gave a self-cleavage of 0.119. C26A A40U gave a self-cleavage of 0.107. C25G G39C showed a self-cleavage of 0.109. C25G G39U gave a self-cleavage of 0.121. C25U G42A gave a self-cleavage of 0.148. For C25U G42C, the self-cleavage was 0.154. With C25U G42U the self-cleavage was 0.0953. With C27A A33U the self-cleavage was 0.334. Variant C27A A33G has a self-cleavage of 0.294. With C27A A33C the self-cleavage was 0.245. For C27G G45A, the self-cleavage was 0.0977. C27G G45C showed a self-cleavage of 0.0921. Variant C27G G45U has a self-cleavage of 0.0905. With C27G A34C the self-cleavage was 0.0686. C27G A34U gave a self-cleavage of 0.0972. C27G A34G gave a self-cleavage of 0.124. Work on C26G G45U yielded a self-cleavage of 0.156. Variant C26U G43C has a self-cleavage of 0.0933. Variant C26U G43A has a self-cleavage of 0.125. C26U G43U showed a self-cleavage of 0.111. C27A G28U showed a self-cleavage of 0.37. For C27A G28C, the self-cleavage was 0.323. In the case of C25U G39A, the self-cleavage is reported as 0.141. In the case of C27A G36A, the self-cleavage is reported as 0.121. C27A G36C gave a self-cleavage of 0.123. In the case of C27A G36U, the self-cleavage is reported as 0.128. C25G A33U gave a self-cleavage of 0.246. Work on C25G A33C yielded a self-cleavage of 0.227. In the case of C25U A34U, the self-cleavage is reported as 0.633. G24U G47U gave a self-cleavage of 0.0704. In the case of G24U G47A, the self-cleavage is reported as 0.094. In the case of C25A U31C, the self-cleavage is reported as 0.138. For C25A U31G, the self-cleavage was 0.127. With C25G G41C the self-cleavage was 0.133. For C25G G41U, the self-cleavage was 0.133. For C25U G36A, the self-cleavage was 0.263. G24C G42U gave a self-cleavage of 0.0759. For C26A A32G, the self-cleavage was 0.636. C27U A34C gave a self-cleavage of 0.0865. C27U A34U gave a self-cleavage of 0.567. With C26A A34G the self-cleavage was 0.156. C26A A34C gave a self-cleavage of 0.0918. For C26A A34U, the self-cleavage was 0.177. For C25G G29A, the self-cleavage was 0.564. Work on C27U G29A yielded a self-cleavage of 0.687. Variant C27U G29C has a self-cleavage of 0.124. C27U G29U gave a self-cleavage of 0.441. Variant G24U A34U has a self-cleavage of 0.116. With C25U G45U the self-cleavage was 0.592. Work on C25U G45A yielded a self-cleavage of 0.587. Work on C25A C27A yielded a self-cleavage of 0.0772. For C27U A35G, the self-cleavage was 0.271. C27U A35U showed a self-cleavage of 0.775. Variant C25G G38C has a self-cleavage of 0.229. Variant C25U A33C has a self-cleavage of 0.791. In the case of C25G A34G, the self-cleavage is reported as 0.124. For C27A G29C, the self-cleavage was 0.0808. C27A G29A gave a self-cleavage of 0.382. C27A G29U showed a self-cleavage of 0.132. Work on C25G G42U yielded a self-cleavage of 0.112. For C26U G38U, the self-cleavage was 0.201. C26U A40G gave a self-cleavage of 0.0722. Work on C26U A40U yielded a self-cleavage of 0.131. C26U A40C gave a self-cleavage of 0.131. C26A A35G gave a self-cleavage of 0.219. For C26A A35U, the self-cleavage was 0.732. For C25U A35U, the self-cleavage was 0.764. Work on C25U A35G yielded a self-cleavage of 0.46. In the case of C27G A35C, the self-cleavage is reported as 0.104. For C27G A35G, the self-cleavage was 0.108. Work on C27G A35U yielded a self-cleavage of 0.0981. C25G C46A showed a self-cleavage of 0.148. With C25G C46G the self-cleavage was 0.223. For C25U G47A, the self-cleavage was 0.663. C25U G47C showed a self-cleavage of 0.248. With C27A G41U the self-cleavage was 0.0984. Work on C27A G41C yielded a self-cleavage of 0.152. C26A G48A showed a self-cleavage of 0.304. C26A G48C showed a self-cleavage of 0.434. Work on C26A G48U yielded a self-cleavage of 0.355. In the case of G24U G45C, the self-cleavage is reported as 0.0947. Variant G24U G45A has a self-cleavage of 0.0796. In the case of G24U G45U, the self-cleavage is reported as 0.091. C27G G48C gave a self-cleavage of 0.147. In the case of C27G G48A, the self-cleavage is reported as 0.102. C25G A32U showed a self-cleavage of 0.19. Work on C25G G43U yielded a self-cleavage of 0.133. In the case of C25A A35C, the self-cleavage is reported as 0.141. With C25A A35G the self-cleavage was 0.0612. For C25A A35U, the self-cleavage was 0.135. G24C G45C showed a self-cleavage of 0.0828. With G24C G45A the self-cleavage was 0.0924. With C25A G36C the self-cleavage was 0.0709. Variant C26U G41A has a self-cleavage of 0.109. C25A G42C showed a self-cleavage of 0.115. Variant C25A G45A has a self-cleavage of 0.0857. C25A G45C showed a self-cleavage of 0.0975. Work on C27A G45C yielded a self-cleavage of 0.144. C26G U37G showed a self-cleavage of 0.115. With C26G U37A the self-cleavage was 0.126. C26G U37C showed a self-cleavage of 0.0957. With C26A C46A the self-cleavage was 0.338. For C26G G39A, the self-cleavage was 0.0939. C25A A33C gave a self-cleavage of 0.0788. Variant C26G A33U has a self-cleavage of 0.135. For C26G A33G, the self-cleavage was 0.154. For C25U A40G, the self-cleavage was 0.121. In the case of C25A G38A, the self-cleavage is reported as 0.0977. Work on C25A G38C yielded a self-cleavage of 0.126. In the case of G24U A35C, the self-cleavage is reported as 0.133. G24U A35U gave a self-cleavage of 0.175. G24U C27U showed a self-cleavage of 0.13. In the case of C25A G29A, the self-cleavage is reported as 0.308. Work on C25A G29C yielded a self-cleavage of 0.0958. C25A G29U showed a self-cleavage of 0.24. C27U C46G gave a self-cleavage of 0.914. With C27U C46U the self-cleavage was 0.822. For G24U U37G, the self-cleavage was 0.092. G24U U37C showed a self-cleavage of 0.0947. For C27G C46G, the self-cleavage was 0.1. Variant C26A G45C has a self-cleavage of 0.123. With C27A A32C the self-cleavage was 0.484. Work on G24U G42C yielded a self-cleavage of 0.0781. G24U G42A gave a self-cleavage of 0.0906. For G24C U31A, the self-cleavage was 0.0517. G24C G48C showed a self-cleavage of 0.116. For G24C G48A, the self-cleavage was 0.0988. G24C G48U gave a self-cleavage of 0.0846. For C26G A35U, the self-cleavage was 0.497.
